We go through eight molecules from paper PMC8196545 (Cell reports, 2021).

The experiment concerns the target HIV-1 NL4-3 Env on infected cells (HIV-1 group M subtype B, NL4-3 (pNL4-3 …, strain)).

B1: c5358 (antibody, V domains shown)
VH: RLQLRESGPALVRPSETLSLTCTVSGGPTSDFFWSWVRQAAGGRLEWIGRIYASDGSTKMNPALHTRIGLELNTLENIFNLRLLSVTAADTAVYFCVREEVHGYDSWNSDSGTYNGIDAWGLGTPVTVSS
VL: SVVLTQPPSVSGSPGETVIISCTRSSGAIPSRHVQWYRQRPGGLPARVIFANSQRPHWVPDRYSASVDASSNTASLTISGLQPDDEAKYFCQSFDDTRHHHIVFGGGTEVIVV
As for B1, the binding result is “binds”.

B2: c10969 (antibody, V domains shown)
VH: AGHLVESGGKLISPGGSLSLSCVASGFTFKNAHMTWVRQVPGKGLEWIALMKSHADGSHTDYSPSVRDRCAISRDDSTSSLFLHLYNLQLDDTGIYYCVHLSSPDEWGLGTAVTVSS
VL: HIVLTQSPVTLSGSQGDTVALSCRANQSLRSHLAWYQHRPGQTPKVLIYEVSRRRPATPPRFSGSGSGTEFTLVIRGLEPEDSAVYYCQQGDFWPFSFGQGTNLEIT
With B2, the binding result is on record as “binds”.

B3: c10819 (antibody, V domains shown)
VH: EMRLEESGGALVKPGGSLRLSCVASGFKLSEWSLMWVRQAPGKGLQWVSSISLNQDYISYAGSVRGRFDVFRDRTQTSLLLNMNKLKTEDTGIYFCARVHAWRYFDWVNRRSPVEKVLSIDLWGRGTLVIVSS
VL: SGATQPPSVSVSKGETARITCSGVELSSQYVSWYRQRPGQSPVLVMFHNNSRASRIPERFSASDSGDTATLTIAGAQDVDEAEYYCQTWDSKNYVTFGGGTKLTVL
B3: the binding result is given as “binds”.

B4: c5616 (antibody, V domains shown)
VH: LVRLAESGGGVVRPGESLTLSCATSGFSFSSYGMHWVRQIPGKGLEWVAVIWNDGSRRYYSDSVQGRFTIAKDTSNKTLSLHMRDLQVGDTAVYFCARAYGPQSEMDSWGLGTLVTVSS
VL: SSELTQPPSVSVSPGQTAILTCVGDILPRKHAYWYRQRAGRAPTLIVFGDNNRPSGIPARFSGFTSGTVATLVITAAQVDDGGDYFCYSADNSGNHRGVFGGGTRLTIL
In the case of B4, the binding result is “binds”.

B5: c807 (antibody, V domains shown)
VH: QVQLQESAPRLVTTSETLSLTCTVFGGQFYPFFYSWVRQSPGGKLQWIGRKYSSTGSMRTNPSLHTRVGMPLDHSKSQIGLTMSSMTAADTGIYYCVRDIMREFDSVDGSGGVYGGVDVWGRGTTVTVSS
VL: NFMLTQPPSVSESPGKTVTISCTRNSGSIASNSVYWYRQRPGSPPTTLIHDNNRRPTGVPDRFSASIDTSSNSASLTISSLKTEDEADYYCQSYDNGNHVIFGGGTNLLVL
B5: the binding result is given as “binds”.

B6: c5299 (antibody, V domains shown)
VH: QVRLLESGPGLVKPSGTLSLTCHVSGASVTSFSWSWVRQSAQKGLQWLGRILPTNGSNKSNPSLHPRVGLAADTSTNQLSLRLTSVTAADSGIYFCARDFVRDYDSWASDYSTLHGIDVWGPGTSVTVSF
VL: NSLLTQPPSVSESPGKTVTISCTRTSGDITWDFVQWYRHRPGTSPTLVIFANDRRASGVPDRFSGSIDSSSNTAALTISGLKTDDEADYYCQSFHPRYHVVFGGGTKLTVL
As for B6, the binding result is “binds”.

B7: c5260 (antibody, V domains shown)
VH: QVRLQESGPRLVKPSETLSLTCTVSGASVTSYSWSWIRYSAERGLEWIGRILPTIGSNRANPSLHFRVGMSADTSKNLLSLRLTSLTAADTAIYFCARDLVRDYDSWGGDYSTFHGIDVWGQGTTVIVSL
VL: NSLLTQPPSVSESPGKTVNISCTRTSGAITWDFVQWYQKRPGSVPTVVIYANDRRPSGVPDRFSGSIDSSSNSAALTISRLKTEDEAEYYCQSFHPRSHVVFGGGTKLTVL
Regarding B7, the binding result is on record as “binds”.

B8: c26412 (antibody, V domains shown)
VH: EVRLVQSGGGVVRPGGSLRLSCSASGFSFSRSAMSWVRQAPGKELQWVAAISGSGNSHHISDAFRGRVSISRNNENDSVFLQMSNLRLDDTGKYFCAKSEGGRSGWYYWATEYFQHWGQGAVVTVSS
VL: SSELTQPPSVSVSPGQTARISCSGHTLPQRYATWYQQKPGRAPLLIIFGNNERPSGIPARFSVSASGKSAILTITGVQAEDEGDYICQSSDGSHTSLFFGGGTKLTVL
With B8, the binding result is “binds”.
